The source of these data is patent US20220251198A1.

The target in assay [1] is human FcγRIIIA_158V extracellular domain (human) (UniProt P08637). Briefly: SPR (Biacore), FcγR ECD analyte; N=1. On the technique in general: In SPR one partner is held on a chip, and binding of the other changes the refractive index at the surface.
Assay [2] deals with human FcγRIIb extracellular domain (human) (UniProt P31994). Briefly: SPR (Biacore), FcγR ECD analyte; N=1.
For assay [3], the target named is human FcγRI extracellular domain (human) (UniProt P12314). Briefly: SPR (Biacore), FcγR ECD analyte; N=1.
Assay [4] has as its target human FcγRIIA_131H extracellular domain (human) (UniProt P12318). Briefly: SPR (Biacore), FcγR ECD analyte; N=1.
Assay [5] addresses human FcγRIIIA_158F extracellular domain (human) (UniProt P08637). Briefly: SPR (Biacore), FcγR ECD analyte; N=1.
For assay [6], the target named is human FcγRIIA_131R extracellular domain (human) (UniProt P12318). Briefly: SPR (Biacore), FcγR ECD analyte; N=1.
For assay [7] the target is unchanged. Briefly: SPR at 25 C, antibody captured on Protein A, FcγR ECD analyte, steady state.
Assay [8] concerns the target human FcγRIIA_131H extracellular domain (human) (UniProt P12318). Described as above.
In assay [9] the target is human FcγRIIIA_158F extracellular domain (human) (UniProt P08637). The assay is described as above.
Assay [10] concerns the target human FcγRIIIA_158V extracellular domain (human) (UniProt P08637). The description is as above.

human FcγRIIb extracellular domain (human), sequence (P31994 43-217): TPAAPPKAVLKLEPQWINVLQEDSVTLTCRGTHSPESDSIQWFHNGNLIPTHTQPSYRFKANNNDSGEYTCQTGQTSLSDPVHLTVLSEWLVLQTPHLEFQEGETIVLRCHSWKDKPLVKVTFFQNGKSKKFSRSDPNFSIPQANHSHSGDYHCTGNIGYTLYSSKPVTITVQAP
human FcγRIIA_131H extracellular domain (human), sequence (P12318 34-217): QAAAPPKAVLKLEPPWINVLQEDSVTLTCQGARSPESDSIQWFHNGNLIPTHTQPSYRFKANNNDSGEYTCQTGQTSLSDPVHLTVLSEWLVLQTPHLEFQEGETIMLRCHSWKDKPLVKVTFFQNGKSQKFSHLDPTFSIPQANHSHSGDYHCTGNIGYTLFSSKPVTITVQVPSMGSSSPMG
human FcγRIIIA_158V extracellular domain (human), sequence (P08637 17-208 F176V): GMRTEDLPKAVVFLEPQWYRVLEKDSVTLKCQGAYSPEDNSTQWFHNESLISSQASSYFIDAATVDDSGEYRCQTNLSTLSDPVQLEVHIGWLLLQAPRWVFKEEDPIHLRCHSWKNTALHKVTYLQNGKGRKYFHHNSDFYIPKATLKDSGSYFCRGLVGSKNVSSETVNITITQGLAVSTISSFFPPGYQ
human FcγRIIIA_158F extracellular domain (human), sequence (P08637 17-208): as the sequence (P08637 17-208 F176V) above, with V160F counted along it
human FcγRI extracellular domain (human), sequence (P12314 16-292): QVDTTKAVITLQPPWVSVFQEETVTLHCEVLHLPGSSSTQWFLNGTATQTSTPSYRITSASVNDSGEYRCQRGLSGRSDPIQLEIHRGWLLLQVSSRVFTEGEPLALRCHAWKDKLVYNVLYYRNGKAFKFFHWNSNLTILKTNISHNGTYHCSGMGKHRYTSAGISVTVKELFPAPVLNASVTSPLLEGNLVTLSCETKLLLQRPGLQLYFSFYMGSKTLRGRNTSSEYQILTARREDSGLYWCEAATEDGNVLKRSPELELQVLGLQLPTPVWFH
human FcγRIIA_131R extracellular domain (human), sequence (P12318 34-217 H167R): as the sequence (P12318 34-217) above, with H134R counted along it

“CD200R antibody IgG1 A330S + P331S + S267G”: the Kd (commonly a measure of binding affinity in units of concentration) worked out at 2480 nM in [1]; 4.3 µM in assay [2]; 0.511 nM in assay [3]; 5.1 µM in assay [4]; 9.8 µM in assay [5].

For the substance CD200R antibody IgG1 A330S + S267G, the Kd in [1] amounted to 1660 nM; in assay [2], 4.99 µM; in [6], 820 nM; in assay [3], 0.168 nM; in assay [4], 3.31 µM; in assay [5] it was 10.8 µM.

In the case of CD200R antibody IgG1 K322A, the Kd was 3.41 µM in assay [2]; 820 nM in [6]; 0.0305 nM in [3]; 0.98 µM in assay [4]; 2.58 µM in assay [5].

As to CD200R antibody IgG1 K322A + S267G, the Kd is 1650 nM in assay [1]; 4.43 µM in assay [2]; 660 nM in assay [6]; 0.0705 nM in [3]; 5.02 µM in assay [4]; 9.99 µM in [5].

Take CD200R antibody IgG1 N325S + L328F: the Kd stood at 7350 nM in assay [1]; 0.275 µM in assay [2]; 60 nM in assay [6]; 0.0687 nM in assay [3]; 2.64 µM in assay [4].

For the substance CD200R antibody IgG1 P331S, the Kd in assay [1] was 450 nM; in assay [2] it was 4.64 µM; in [6], 1140 nM; in [3], 0.0543 nM; in [4], 1.15 µM; in assay [5], 3.11 µM.

For the substance CD200R antibody IgG1 P331S + S267G, the Kd in [1] amounted to 2080 nM; in assay [2], 4.38 µM; in assay [6] it was 770 nM; in assay [3], 0.142 nM; in assay [4], 5.2 µM.

In the case of CD200R antibody IgG1 S267G, the Kd was 730 nM in assay [1]; 3.41 µM in [2]; 530 nM in assay [6]; 0.131 nM in [3]; 3.13 µM in [4]; 4.5 µM in [5].

Hu IgG1 (antibody): the dissociation constant Kd worked out at 4.2 µM in assay [2]; 1030 nM in assay [6]; 0.0552 nM in assay [3]; 0.71 µM in assay [4]; 2.59 µM in [5].

As to Human IgG4P control antibody, the Kd is 5470 nM in assay [1]; 3.31 µM in assay [2]; 2890 nM in assay [6]; 0.385 nM in [3]; 5.12 µM in assay [4].

Take IgG1 Control Antibody: the Kd in assay [7] amounted to 600 nM; in [8] it was 500 nM; in assay [9], 1000 nM.

Substance IgG4 PAA Control Antibody came in with a Kd in assay [10] of 8.9 µM.
